B1: Dual oxidase 1 (Homo sapiens), Q9NRD9 (parent)
chain: MGFCLALAWTLLVGAWTPLGAQNPISWEVQRFDGWYNNLMEHRWGSKGSRLQRLVPASYADGVYQPLGEPHLPNPRDLSNTISRGPAGLASLRNRTVLGVFFGYHVLSDLVSVETPGCPAEFLNIRIPPGDPMFDPDQRGDVVLPFQRSRWDPETGRSPSNPRDPANQVTGWLDGSAIYGSSHSWSDALRSFSRGQLASGPDPAFPRDSQNPLLMWAAPDPATGQNGPRGLYAFGAERGNREPFLQALGLLWFRYHNLWAQRLARQHPDWEDEELFQHARKRVIATYQNIAVYEWLPSFLQKTLPEYTGYRPFLDPSISSEFVAASEQFLSTMVPPGVYMRNASCHFQGVINRNSSVSRALRVCNSYWSREHPSLQSAEDVDALLLGMASQIAEREDHVLVEDVRDFWPGPLKFSRTDHLASCLQRGRDLGLPSYTKARAALGLSPITRWQDINPALSRSNDTVLEATAALYNQDLSWLELLPGGLLESHRDPGPLFSTIVLEQFVRLRDGDRYWFENTRNGLFSKKEIEEIRNTTLQDVLVAVINIDPSALQPNVFVWHKGDPCPQPRQLSTEGLPACAPSVVRDYFEGSGFGFGVTIGTLCCFPLVSLLSAWIVARLRMRNFKRLQGQDRQSIVSEKLVGGMEALEWQGHKEPCRPVLVYLQPGQIRVVDGRLTVLRTIQLQPPQKVNFVLSSNRGRRTLLLKIPKEYDLVLLFNLEEERQALVENLRGALKESGLSIQEWELREQELMRAAVTREQRRHLLETFFRHLFSQVLDINQADAGTLPLDSSQKVREALTCELSRAEFAESLGLKPQDMFVESMFSLADKDGNGYLSFREFLDILVVFMKGSPEEKSRLMFRMYDFDGNGLISKDEFIRMLRSFIEISNNCLSKAQLAEVVESMFRESGFQDKEELTWEDFHFMLRDHNSELRFTQLCVKGVEVPEVIKDLCRRASYISQDMICPSPRVSARCSRSDIETELTPQRLQCPMDTDPPQEIRRRFGKKVTSFQPLLFTEAHREKFQRSCLHQTVQQFKRFIENYRRHIGCVAVFYAIAGGLFLERAYYYAFAAHHTGITDTTRVGIILSRGTAASISFMFSYILLTMCRNLITFLRETFLNRYVPFDAAVDFHRLIASTAIVLTVLHSVGHVVNVYLFSISPLSVLSCLFPGLFHDDGSELPQKYYWWFFQTVPGLTGVVLLLILAIMYVFASHHFRRRSFRGFWLTHHLYILLYVLLIIHGSFALIQLPRFHIFFLVPAIIYGGDKLVSLSRKKVEISVVKAELLPSGVTHLRFQRPQGFEYKSGQWVRIACLALGTTEYHPFTLTSAPHEDTLSLHIRAAGPWTTRLREIYSAPTGDRCARYPKLYLDGPFGEGHQEWHKFEVSVLVGGGIGVTPFASILKDLVFKSSVSCQVFCKKIYFIWVTRTQRQFEWLADIIREVEENDHQDLVSVHIYITQLAEKFDLRTTMLYICERHFQKVLNRSLFTGLRSITHFGRPPFEPFFNSLQEVHPQVRKIGVFSCGPPGMTKNVEKACQLINRQDRTHFSHHYENF
partner: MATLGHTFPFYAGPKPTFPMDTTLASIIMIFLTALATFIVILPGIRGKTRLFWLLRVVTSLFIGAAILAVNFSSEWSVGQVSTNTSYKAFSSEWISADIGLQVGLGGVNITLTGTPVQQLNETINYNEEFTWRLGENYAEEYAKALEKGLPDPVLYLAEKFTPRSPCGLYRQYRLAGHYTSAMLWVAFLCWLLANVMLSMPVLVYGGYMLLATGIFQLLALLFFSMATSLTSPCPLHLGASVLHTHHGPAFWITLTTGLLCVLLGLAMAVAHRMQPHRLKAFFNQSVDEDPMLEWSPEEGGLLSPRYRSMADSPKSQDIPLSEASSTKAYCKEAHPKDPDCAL

Variants of: B1
Details: with doxa1_human DUOXA1, Q1HG43

Effect of a mutation on the interaction, disrupting interaction strength:
R507E
R507A
R50E
